The labels stand for the following.
B1: MBP-Vac17(H) [budding yeast] / Strep II-Myo2(1150–1567) [budding yeast] (parent complex)
chain 1: MATQALEDITERLLIRSQEAILQLDLWIQRQQRSSICQTTDQESLDKLSQQYNQYMSQLNSLYVRSESVRDKLSKEQQRRLITEDNEHQRIEDLVREFQDITLRLNELA
chain 2: GVNATQINEELYRLLEDTEILNQEITEGLLKGFEVPDAGVAIQLSKRDVVYPARILIIVLSEMWRFGLTKQSESFLAQVLTTIQKVVTQLKGNDLIPSGVFWLANVRELYSFVVFALNSILTEETFKNGMTDEEYKEYVSLVTELKDDFEALSYNIYNIWLKKLQKQLQKKAINAVVISESLPGFSAGETSGFLNKIFANTEEYTMDDILTFFNSIYWCMKSFHIENEVFHAVVTTLLNYVDAICFNELIMKRNFLSWKRGLQLNYNVTRLEEWCKTHGLTDGTECLQHLIQTAKLLQVRKYTIEDIDILRGICYSLTPAQLQKLISQYQVADYESPIPQEILRYVADIVKKEAALSSSGNDSKGHEHSSSIFITPETGPFTDPFSLIKTRKFDQVEAYIPAWLSLPSTKRIVDLVAQ

Our source for the ratio to parent values is doi:10.1101/2025.03.24.645041 (2025).

The variants in this experiment derive from B1. The experiment in a line: pull-down; Strep II-Myo2 tail co-expressed with MBP-Vac17(H) and immobilized on Strep-Tactin beads; normalized to Vac17 and Myo2 input levels; parent: 1; read off a plot.
For the variant chain 2 E189R, chain 2 K259A, chain 2 V299A, the ratio to parent was ~0.4.
Next, chain 2 K259A, chain 2 R300E: ~0.59.
